55 sequences from the supplement of paper PMC12636428 can be followed below.

The data set concerns Saccharomyces cerevisiae. The data set is described as follows: transcriptional activation domain activity (GFP:mCherry ratio, weighted mean of sorted bins, harmonized to initial dataset scale) (arbitrary fluorescence ratio units); higher = stronger transcriptional activation. The following applies: beta-estradiol 1 µM; induction time 4 h. On the procedure: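 53-aa protein tiles (fungal proteins plus yeast TF control tiles) fused C-terminally to a DBD-estrogen-binding domain-mCherry synthetic TF, integrated in S. cerevisiae (URA3 locus) with a GFP reporter. Cells were induced with 1 uM beta-estradiol for 4 h at 30 C, FACS-sorted into 8 bins by GFP:mCherry ratio and barcodes sequenced. Activity is the read-weighted mean bin fluorescence (GFP:mCherry), averaged over barcodes (median 12); tiles under 50 reads were discarded. New active-learning values were harmonized by linear fit onto the scale of the initial (Hummel et al.) dataset. The assay saturates at low and high signal.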

For “MRYRVNYMSTQGIHYSPFLPWIINIFKPNIMLICLFSFLPYFILFIMKSMLVL”, the “transcriptional activation domain activity” value was found to be 74600.

For the sequence “DTIYIFHALLVVFWVSLMQEPAFPYKLLIPILYITILLIPFTSQVFLPAVPVL”, the “transcriptional activation domain activity” value came to 49400.

For “FWGLRSLPSSPFICLFLFYCGLVLMHSGLYLGLFLFLLFLSLSVFLFLSHFSV”, the “transcriptional activation domain activity” value turned out to be 30100.

With “EKGKSIWIGRDNLEVNVETLALQWYEDQGFKGIHSETRIITTLFGILFWDIIF”, the “transcriptional activation domain activity” value was found to be 55900.

“MLLTVYMFIIVCTCLAQLKIQSLSFLIYYHYINLVLLLLIAGLLYGLSFVRFS”: the “transcriptional activation domain activity” value amounted to 48500.

Take “KSKKKRRSKRKPKNQKKKTTGKDAQEHLDDEQTRNLEDGQDDKKDEQDDDNKK”: the “transcriptional activation domain activity” value is 31400.

Regarding “TTTGTTTTGTTATPSSSPETKPNKIPISMQGYAYSGGGRAIARVDVSLDNGRT”, the “transcriptional activation domain activity” value was determined as 37700.

Take “MWGILYSLQYHQNFPFVACFLSDLFEKIIHHHFFYFSLSSFSLFLIFHFWFFF”: the “transcriptional activation domain activity” value worked out at 52000.

Take “FFLVLIYCPFPSFGPDLSLPFPSPFLSLHLLITILLSPLSPFYLFLFYFTSPS”: the “transcriptional activation domain activity” value was determined as 84300.

Regarding “YADWLLEPEQNNGTWVADVLWPAINLDLQWISSHWNQSSWDLWWPPVWGGSYW”, the “transcriptional activation domain activity” value stood at 67800.

As to “MNHTSRFFSPFFLFSLFLSFPSFLLPCFLLLFLFLPFLPPSLSLLSLILYKFW”, the “transcriptional activation domain activity” value came out at 31900.

In the case of “MVVFGCRCNVMLYILFCNLRFLLRGAVCIQILTMFILWCAMTEIVLSVLPILS”, the “transcriptional activation domain activity” value worked out at 47300.

In the case of “ESGSGSGSESGDSKDTAKAQGRGRKRGRESENHSSEDEEESVERKPRKARKFR”, the “transcriptional activation domain activity” value stood at 36100.

In the case of “MLVRISLFLTLPFTLNLLPTMDLCCIGNVKILNYLSKCIHGSLCNHSIILIRL”, the “transcriptional activation domain activity” value was found to be 56300.

Turning to “HKLKHVLAEHGARMSIHLGRRQVTHVILGRPAGGGGGAGGGLAGGKLQKEIQK”, the “transcriptional activation domain activity” value stood at 42500.

For the sequence “MSWQRVYRGWVVNGPGFGFFGRYYWIIIIRLAVPRRLLTCSCWCFGWLLFFLI”, the “transcriptional activation domain activity” value turned out to be 65700.

On to “RLYLKGVVLTLWSLDTIHLICVCHALYWYLITNFLNAFVLEKLAWYRGWCPSH”, for which the “transcriptional activation domain activity” value was 68600.

For “MSFFLYYFFYLLQGVIIHIIYTYISLFIPLHSFIIISFIFFFFIIFTLFFLLF”, the “transcriptional activation domain activity” value turned out to be 70800.

With “LSVSLVYNSAYLLQRISFWVISFSTYTLPTWLFTLFSTSLTFTMNFTTLLIIV”, the “transcriptional activation domain activity” value was found to be 78700.

In the case of “MAQVAVFVVHKFLYGIIPLFEISTCAYFPLLVSLWHLNYLLFYAVMFMRLIIL”, the “transcriptional activation domain activity” value came out at 75000.

Regarding “IHISPFLSFLLFNTFLFFFDILLEYDQSGKSSCSVLWGIGWGCWWILFIGSLQ”, the “transcriptional activation domain activity” value came to 38800.

Regarding “AVLEFYEQSTRLVASDALGRHVRIELPPRLLVYVVFFSPSVAVVSRLCSLLAC”, the “transcriptional activation domain activity” value amounted to 35600.

Take “YLFLFYLTILVWFGLFYFIQFFFYLSFHFLFCFVLLLFFTFVFWGVFIFCFFF”: the “transcriptional activation domain activity” value amounted to 45500.

In the case of “EIDEAAGEINEAAGEVNEAGEVDKAGEVDEAGEVNDEAGKIDKAAGEIDEAAG”, the “transcriptional activation domain activity” value was 30600.

As for “IQVRLTAFDCLFVLKGLTESTLTQYFLSVIRDDPCVYVSHYVARAMLAWLGLA”, the “transcriptional activation domain activity” value was found to be 55600.

For the sequence “DGKTFDQLLRLKRLLVMHKGNLQSMWCVALMLELWHTKWTELSRLIQQHWGTG”, the “transcriptional activation domain activity” value turned out to be 74200.

Take “MRIIIFMSLLLLKIIMILLLLLLRIKFNWFSFFSILKMLLSMKIMMLFLFLLL”: the “transcriptional activation domain activity” value turned out to be 35900.

In the case of “LFGLFGPLDLWTFWTFGLFGLFGLFGLFGLFGLGLFGLLDFLDFWPWTFWPWI”, the “transcriptional activation domain activity” value amounted to 57700.

Regarding “LCLLHRWKEFNQPEDVKCAVEYLRHLRGLPLDTFEVSHKVVTILLVQVLGIQV”, the “transcriptional activation domain activity” value is 48900.

“LQASREEIRKKVSEDDHGLTRFRRQVVLALDLYIWEPICISLRFLRLVMIFVP”: the “transcriptional activation domain activity” value came out at 52400.

Turning to “CYWKAKAPPYVLPMLILSKRLHSIFVLRCFNDCFAVLFLWLAILCLQRRSWQL”, the “transcriptional activation domain activity” value is 67900.

In the case of “VDLTQLSHLMLKIWLELILIVVYKHNILERTYENMVISCMKQVIDLLARDISE”, the “transcriptional activation domain activity” value was 51900.

As for “QHLRSDPQMRLWLVMFLFLTFMVHTILSATLSIIFVSITYSLFWLPQIVRSAR”, the “transcriptional activation domain activity” value was 30800.

In the case of “AGDMGIERTGVDLHNGKHPLNALLKAIVGKLHLPLYFHWGPLNIGSCFSIPYA”, the “transcriptional activation domain activity” value turned out to be 50300.

Consider “KATYHAMLHICRDIAKETLFFFHLVQEHPDDLPLVQSVLILLISCISRVVCTL”, for which the “transcriptional activation domain activity” value came out at 55000.

In the case of “GASSSAAAAGSSEEAPKKKRGRPPKEKKADESGAETEPAPKRKRGRPPKNPKP”, the “transcriptional activation domain activity” value is 21200.

In the case of “KLGLGPTYGIMLALLVSHGIVCCFKTSILARLNVYYVILNLGTLIALSVALLV”, the “transcriptional activation domain activity” value amounted to 50600.

On to “MSENTAVENVTATLEKTKLEAPVTNEAEVAHAASAAEGRRLYIGNLAYSTTEE”, for which the “transcriptional activation domain activity” value was 33100.

Turning to “DVDEAGEARGDSSSLCLSFLSLLLFFLFFLFFLLFRFLHLLHFFLFLLVFHFF”, the “transcriptional activation domain activity” value came out at 47600.

For the sequence “NGPRRNNNTPNNSPLNPGENGTSRPPRQRNPRNRPPRPRTQDNAPEPSEPASG”, the “transcriptional activation domain activity” value came to 19800.

Turning to “RAVAVLRRGDFAGAGGGGGSGAGGGKRRKEKEKEEQEERRRRPAVASRAVKDL”, the “transcriptional activation domain activity” value amounted to 57500.

Regarding “FMVLFFITLFSFLVLIPFPWSFVSRYVYSSMFMFCIFFSAFLRFHLLLLSFCR”, the “transcriptional activation domain activity” value amounted to 54900.

In the case of “SQKNGTSAANALVYGGFSHTVTQHTIKDVSIDGTWLEEEIDGFKSDTLGFHVD”, the “transcriptional activation domain activity” value is 72800.

In the case of “SSGDERQKHQTKSSSKKSREKSKKAAGRNKAEEAKTNDGRKSTRKPSKRTRST”, the “transcriptional activation domain activity” value amounted to 24900.

Turning to “PGEVSEAEANGDAPKADDAAAPESGEAAKPKKKKKKAAKKPKKEGEEGAAAAP”, the “transcriptional activation domain activity” value worked out at 37700.

Regarding “SHQEHVIAQLMNKVKSVSTTKPYVEYFQMPSKSVFITIVALCLYVILLKKTPS”, the “transcriptional activation domain activity” value came to 15500.

Regarding “MGKGGYGEQRGGGRGGFRGGRGGGRGGFGGGGFNQGPPSEVVVVGAFVSACEG”, the “transcriptional activation domain activity” value is 56800.

Turning to “LPFYFFLHCTLSMIPSIHSPSFLQSYICFMLIPPLPLMFIVVFHPLYFFWLFL”, the “transcriptional activation domain activity” value was found to be 15000.

On to “ENSEDALHNSETMDLLGTLSHGNDFALEYNFDFTLLNEIDMLIGGNTNDGLSK”, for which the “transcriptional activation domain activity” value worked out at 101000.

For the sequence “LLESLGHDDSLEFFFVSGMLRYVRFGFWRRIIGYQFRNLRTQITRSIYYDWYR”, the “transcriptional activation domain activity” value stood at 45500.

Turning to “EKVKEEEEVKYKGKEQEEVKDKGKEQEQEQEQEQEQEQEQEAPAPPRTTTSTA”, the “transcriptional activation domain activity” value stood at 40900.

In the case of “ILAGCCLGYACNKWGSITVFKYYGIPWLFLNHWFVMITYLHHTDPTIPHYRGK”, the “transcriptional activation domain activity” value came out at 73500.

As for “RANMSTQKLAASASRQINAVVVSAGLMEKTVKVRIGQQKWNAHIRKHFNRTSH”, the “transcriptional activation domain activity” value came to 44400.

Take “IRSSSHLFPISPFYFVFLFWSSFSVFTMLLLPPTIPRSNQFRAFSSFLWFSWI”: the “transcriptional activation domain activity” value turned out to be 67000.

On to “FAQRKSPFTQLLAFFLTRGCVIAGYQIILLIVPLLAGVSYTWVPLLFCLSRVY”, for which the “transcriptional activation domain activity” value was 62100.
